{
  "source": "paper PMC7242902",
  "key": {"[1]": {"molecular_target": "HiBiT/CXCR4, exogenously (stably) expressed in HEK293 cells (UniProt P61073)"}, "[2]": {"molecular_target": "HiBiT/CXCR4, genome-edited, in HEK293 cells (human (endogenous in HEK293)) (UniProt P61073)"}, "[3]": {"molecular_target": "CXCR4/LgBiT, genome-edited, in HEK293 cells (human (endogenous in HEK293)) (UniProt P61073)"}, "[4]": {"molecular_target": "CXCR4/LgBiT, transiently transfected in HEK293 cells (UniProt P61073)"}, "[5]": {"molecular_target": "HiBiT/ACKR3, exogenously expressed in HEK293 cells (UniProt P25106)"}, "[6]": {"molecular_target": "HiBiT/CXCR4, genome-edited, in HEK293 cells (human (endogenous in HEK293)) (UniProt P61073)", "assay": "FRET or BRET; NanoBRET saturation binding on live HEK293 cells with genome-edited HiBiT/CXCR4; CXCL12-AF647 for 60 min at 37°C, then furimazine (10 μM) and purified cell-impermeant LgBiT (10 nM) added, so that only receptors at the plasma membrane are seen; non-specific binding with AMD3100 (10 μM)"}, "[7]": {"molecular_target": "NLuc/ACKR3, genome-edited, in HeLa cells (human (endogenous in HeLa)) (UniProt P25106)", "assay": "FRET or BRET; NanoBRET saturation binding on live cells (30,000 cells/well) with NLuc-tagged receptor; increasing CXCL12-AF647 for 60 min at 37°C in HBSS with 0.1% BSA; non-specific binding with AMD3100 (10 μM) for CXCR4 or CXCL11 (10 μM) for ACKR3; furimazine 10 μM"}, "[8]": {"molecular_target": "NLuc/CXCR4, genome-edited, in HEK293 cells (human (endogenous in HEK293)) (UniProt P61073)", "assay": "FRET or BRET; NanoBRET saturation binding on live cells (30,000 cells/well) with NLuc-tagged receptor; increasing CXCL12-AF647 for 60 min at 37°C in HBSS with 0.1% BSA; non-specific binding with AMD3100 (10 μM) for CXCR4 or CXCL11 (10 μM) for ACKR3; furimazine 10 μM"}, "[9]": {"molecular_target": "NLuc/CXCR4, genome-edited, in HeLa cells (human (endogenous in HeLa)) (UniProt P61073)", "assay": "FRET or BRET; NanoBRET saturation binding on live cells (30,000 cells/well) with NLuc-tagged receptor; increasing CXCL12-AF647 for 60 min at 37°C in HBSS with 0.1% BSA; non-specific binding with AMD3100 (10 μM) for CXCR4 or CXCL11 (10 μM) for ACKR3; furimazine 10 μM"}, "[10]": {"molecular_target": "NLuc/ACKR3, exogenously (stably) expressed in HEK293 cells (UniProt P25106)", "assay": "FRET or BRET; NanoBRET saturation binding on live cells (30,000 cells/well) with NLuc-tagged receptor; increasing CXCL12-AF647 for 60 min at 37°C in HBSS with 0.1% BSA; non-specific binding with AMD3100 (10 μM) for CXCR4 or CXCL11 (10 μM) for ACKR3; furimazine 10 μM"}, "[11]": {"molecular_target": "NLuc/CXCR4, exogenously (stably) expressed in HEK293 cells (UniProt P61073)", "assay": "FRET or BRET; NanoBRET saturation binding on membrane preparations (10 μg membrane protein per well) with NLuc-tagged receptor; increasing CXCL12-AF647 for 60 min at 37°C in HBSS with 0.1% BSA; non-specific binding with AMD3100 (10 μM) for CXCR4 or CXCL11 (10 μM) for ACKR3"}, "[12]": {"molecular_target": "NLuc/ACKR3, exogenously (stably) expressed in HEK293 cells (UniProt P25106)", "assay": "FRET or BRET; NanoBRET saturation binding on membrane preparations (10 μg membrane protein per well) with NLuc-tagged receptor; increasing CXCL12-AF647 for 60 min at 37°C in HBSS with 0.1% BSA; non-specific binding with AMD3100 (10 μM) for CXCR4 or CXCL11 (10 μM) for ACKR3"}, "[13]": {"molecular_target": "HiBiT/CXCR4, genome-edited, in HEK293 cells (human (endogenous in HEK293)) (UniProt P61073)", "assay": "split reporter (BiFC, NanoBiT); HiBiT-LgBiT complementation, saturation on membrane preparations (10 μg, 0.25 mg/ml saponin) from genome-edited HiBiT/CXCR4 HEK293 cells; increasing purified LgBiT; in the presence of AMD3100 (10 μM)"}, "[14]": {"molecular_target": "HiBiT-Halotag, control peptide", "assay": "split reporter (BiFC, NanoBiT); HiBiT-LgBiT complementation of purified proteins: 1 nM HiBiT-Halotag in HBSS with 0.1% BSA, increasing purified LgBiT; without AMD3100"}, "[15]": {"molecular_target": "HiBiT/β2-adrenoceptor, genome-edited, in HEK293 cells (human (endogenous in HEK293)) (UniProt P07550)", "assay": "split reporter (BiFC, NanoBiT); HiBiT-LgBiT complementation, saturation on live HEK293 cells with genome-edited HiBiT-tagged receptor; increasing purified LgBiT for 30 min at 37°C in HBSS with 0.1% BSA; without AMD3100; non-specific luminescence on wild-type cells"}, "[16]": {"molecular_target": "HiBiT/CXCR4, genome-edited, in HEK293 cells (human (endogenous in HEK293)) (UniProt P61073)", "assay": "split reporter (BiFC, NanoBiT); HiBiT-LgBiT complementation, saturation on live HEK293 cells with genome-edited HiBiT-tagged receptor; increasing purified LgBiT for 30 min at 37°C in HBSS with 0.1% BSA; without AMD3100; non-specific luminescence on wild-type cells"}, "[17]": {"molecular_target": "HiBiT/CXCR4, genome-edited, in HEK293 cells (human (endogenous in HEK293)) (UniProt P61073)", "assay": "split reporter (BiFC, NanoBiT); HiBiT-LgBiT complementation, saturation on membrane preparations (10 μg, 0.25 mg/ml saponin) from genome-edited HiBiT/CXCR4 HEK293 cells; increasing purified LgBiT; without AMD3100"}, "[18]": {"molecular_target": "HiBiT-Halotag, control peptide", "assay": "split reporter (BiFC, NanoBiT); HiBiT-LgBiT complementation of purified proteins: 1 nM HiBiT-Halotag in HBSS with 0.1% BSA, increasing purified LgBiT; in the presence of AMD3100 (10 μM)"}, "[19]": {"molecular_target": "HiBiT/CXCR4, genome-edited, in HEK293 cells (human (endogenous in HEK293)) (UniProt P61073)", "assay": "split reporter (BiFC, NanoBiT); HiBiT-LgBiT complementation, saturation on live HEK293 cells with genome-edited HiBiT/CXCR4; increasing purified LgBiT; in the presence of AMD3100 (10 μM)"}},
  "data": [
    {"molecule": "CXCL12 (from UniProt P48061 22-93) (ligand)", "values": [
      {"measurement": "pEC50 of CXCL12 for the decrease in luminescence (cell surface HiBiT/CXCR4 complemented with purified LgBiT, 10 nM) after 1 h at 37°C, live HEK293 cells stably overexpressing HiBiT/CXCR4", "setting": "[1]", "result": "8.69 -log M"},
      {"measurement": "pEC50 of CXCL12 for the decrease in luminescence (cell surface HiBiT/CXCR4 complemented with purified LgBiT, 10 nM) after 1 h at 37°C, live genome-edited HEK293 cells", "setting": "[2]", "result": "8.46 -log M"},
      {"measurement": "pEC50 of CXCL12 (0.3-300 nM) for the increase in NanoBiT luminescence (recruitment of genome-edited β-arrestin2/SmBiT, m14, to genome-edited CXCR4/LgBiT), about 5 min after ligand addition", "setting": "[3]", "result": "7.16 -log M"},
      {"measurement": "pEC50 of CXCL12 (0.3-300 nM) for the increase in NanoBiT luminescence (recruitment of transiently transfected β-arrestin2/SmBiT, m13, to genome-edited CXCR4/LgBiT), about 5 min after ligand addition", "setting": "[3]", "result": "7.69 -log M"},
      {"measurement": "pEC50 of CXCL12 (0.3-300 nM) for the increase in NanoBiT luminescence (recruitment of genome-edited β-arrestin2/SmBiT, m14, to transiently transfected CXCR4/LgBiT), about 5 min after ligand addition", "setting": "[4]", "result": "7.48 -log M"},
      {"measurement": "pEC50 of CXCL12 for the increase in luminescence of live HEK293 cells with exogenous HiBiT/ACKR3 complemented with purified LgBiT", "setting": "[5]", "result": "8.23 -log M"}
    ]},
    {"molecule": "CXCL12-AF647 (from UniProt P48061 22-93) (ligand)", "values": [
      {"measurement": "pKd", "setting": "[6]", "result": "7.49 -log M"},
      {"measurement": "pKd", "setting": "[7]", "result": "8.77 -log M"},
      {"measurement": "pKd", "setting": "[8]", "result": "7.5 -log M"},
      {"measurement": "pKd", "setting": "[9]", "result": "7.58 -log M"},
      {"measurement": "pKd", "setting": "[10]", "result": "8.12 -log M"},
      {"measurement": "pKd", "setting": "[11]", "result": "7.55 -log M"},
      {"measurement": "pKd", "setting": "[12]", "result": "8.83 -log M"}
    ]},
    {"molecule": "Purified LgBiT (domain or fragment)", "values": [
      {"measurement": "Kd", "setting": "[13]", "result": 115, "unit": "nM"},
      {"measurement": "Kd", "setting": "[14]", "result": 6.99, "unit": "nM"},
      {"measurement": "Kd", "setting": "[15]", "result": 54.5, "unit": "nM"},
      {"measurement": "Kd", "setting": "[16]", "result": 230, "unit": "nM"},
      {"measurement": "Kd", "setting": "[17]", "result": 180, "unit": "nM"},
      {"measurement": "Kd", "setting": "[18]", "result": 7.73, "unit": "nM"},
      {"measurement": "Kd", "setting": "[19]", "result": 58.5, "unit": "nM"}
    ]},
    {"molecule": "CXCL11 (ligand) FPMFKRGRCLCIGPGVKAVKVADIEKASIMYPSNNCDKIEVIITLKENKGQRCLNPKSKQARLIIKKVERKNF", "values": [
      {"measurement": "pEC50 of CXCL11 for the increase in luminescence of live HEK293 cells with exogenous HiBiT/ACKR3 complemented with purified LgBiT", "setting": "[5]", "result": "7.48 -log M"}
    ]}
  ]
}
